T1: DLG3_1, Q92796
T1 sequence (Q92796 125-227, limits assumed, looked up): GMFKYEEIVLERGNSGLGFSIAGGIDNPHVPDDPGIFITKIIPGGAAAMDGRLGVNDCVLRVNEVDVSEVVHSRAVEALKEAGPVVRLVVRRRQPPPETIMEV

T2: PCLO, Q9Y6V0
T2 sequence (Q9Y6V0 4491-4600, limits assumed, looked up): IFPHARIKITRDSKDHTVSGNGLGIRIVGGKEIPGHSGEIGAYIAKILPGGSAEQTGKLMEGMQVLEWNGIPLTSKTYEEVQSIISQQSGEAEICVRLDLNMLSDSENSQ

T3: PDZD2_2, O15018
T3 sequence (O15018 329-429, limits assumed, looked up): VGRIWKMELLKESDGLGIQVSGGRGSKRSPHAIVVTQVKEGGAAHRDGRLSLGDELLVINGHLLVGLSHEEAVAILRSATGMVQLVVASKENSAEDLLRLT

T4: SIPA1L2, Q9P2F8
T4 sequence (Q9P2F8 945-1036, limits assumed, looked up): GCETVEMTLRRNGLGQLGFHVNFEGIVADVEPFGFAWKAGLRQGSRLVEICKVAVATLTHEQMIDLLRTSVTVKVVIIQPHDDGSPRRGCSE

T5: NHERF3_1, Q5T2W1
T5 sequence (Q5T2W1 4-100, limits assumed, looked up): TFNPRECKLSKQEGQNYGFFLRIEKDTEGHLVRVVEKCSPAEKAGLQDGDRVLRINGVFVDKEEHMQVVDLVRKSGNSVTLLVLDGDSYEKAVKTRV

T6: SNTA1, Q13424
T6 sequence (Q13424 82-180, limits assumed, looked up): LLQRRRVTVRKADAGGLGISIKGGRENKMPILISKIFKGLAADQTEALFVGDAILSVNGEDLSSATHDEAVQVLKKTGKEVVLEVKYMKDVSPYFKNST

T7: DFNB31_3, Q9P202
T7 sequence (Q9P202 811-907, limits assumed, looked up): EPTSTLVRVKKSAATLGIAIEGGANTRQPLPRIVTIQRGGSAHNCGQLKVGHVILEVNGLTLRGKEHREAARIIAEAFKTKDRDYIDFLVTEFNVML

T8: MPDZ_5, O75970
T8 sequence (O75970 695-796, limits assumed, looked up): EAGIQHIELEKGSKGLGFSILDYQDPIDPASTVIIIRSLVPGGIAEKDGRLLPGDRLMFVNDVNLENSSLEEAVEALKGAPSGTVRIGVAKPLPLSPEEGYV

T9: NHERF3_4, Q5T2W1
T9 sequence (Q5T2W1 373-468, limits assumed, looked up): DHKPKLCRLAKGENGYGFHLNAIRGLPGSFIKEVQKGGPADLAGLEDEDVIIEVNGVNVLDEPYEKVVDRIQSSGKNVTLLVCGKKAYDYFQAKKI

T10: MPP6, Q9NZW5
T10 sequence (Q9NZW5 125-219, limits assumed, looked up): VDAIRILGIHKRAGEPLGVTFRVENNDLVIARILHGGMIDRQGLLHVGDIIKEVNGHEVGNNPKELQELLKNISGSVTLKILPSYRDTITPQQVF

T11: LIN7A, O14910
T11 sequence (O14910 103-200, limits assumed, looked up): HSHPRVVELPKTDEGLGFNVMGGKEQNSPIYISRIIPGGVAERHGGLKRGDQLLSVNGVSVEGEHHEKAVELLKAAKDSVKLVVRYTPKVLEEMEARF


Assays:
Assay in all cases: holdup assay
Design in all cases: key: below the threshold = too weak to quantify, mostly under pKd 3.1 to 4
Settings in all cases: plain residues with an end cap or a label only (N-terminal biotin on a linker: ado-ado)
[1] = biological target: GRIP2_5, Q9C0E4
[2] = biological target: MAGI2_2, Q86UL8
[3] = biological target: FRMPD3, Q5JV73
[4] = biological target: T1, DLG3_1, Q92796
[5] = biological target: T2, PCLO, Q9Y6V0
[6] = biological target: DLG1_2, Q12959
[7] = biological target: NHERF2_2, Q15599
[8] = biological target: T3, PDZD2_2, O15018
[9] = biological target: T4, SIPA1L2, Q9P2F8
[10] = biological target: GRIP2_6, Q9C0E4
[11] = biological target: T5, NHERF3_1, Q5T2W1
[12] = biological target: DLG1_1, Q12959
[13] = biological target: FRMPD2_3, Q68DX3
[14] = biological target: HTRA2, O43464
[15] = biological target: T6, SNTA1, Q13424
[16] = biological target: T7, DFNB31_3, Q9P202
[17] = biological target: GOPC, Q9HD26
[18] = biological target: MAST1, Q9Y2H9
[19] = biological target: T8, MPDZ_5, O75970
[20] = biological target: T9, NHERF3_4, Q5T2W1
[21] = biological target: IL16_3, Q14005
[22] = biological target: T10, MPP6, Q9NZW5
[23] = biological target: T11, LIN7A, O14910
[24] = biological target: CASK, O14936
[25] = biological target: GRASP, Q7Z6J2
[26] = biological target: DLG1_3, Q12959
[27] = biological target: GRID2IP_2, A4D2P6
Sequence of GRID2IP_2, A4D2P6 (A4D2P6 272-370): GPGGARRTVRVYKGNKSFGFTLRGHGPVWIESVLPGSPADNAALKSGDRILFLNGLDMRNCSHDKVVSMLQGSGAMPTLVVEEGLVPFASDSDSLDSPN

Sequence of NHERF2_2, Q15599 (Q15599 142-238): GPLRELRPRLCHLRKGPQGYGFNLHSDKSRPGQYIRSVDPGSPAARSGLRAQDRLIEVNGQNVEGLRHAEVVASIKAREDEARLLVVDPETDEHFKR
Sequence of GRASP, Q7Z6J2 (Q7Z6J2 96-193): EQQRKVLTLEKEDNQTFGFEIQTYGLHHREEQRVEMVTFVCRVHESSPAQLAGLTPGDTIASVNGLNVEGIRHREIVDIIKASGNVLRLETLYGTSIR
Sequence of GRIP2_6, Q9C0E4 (Q9C0E4 648-740): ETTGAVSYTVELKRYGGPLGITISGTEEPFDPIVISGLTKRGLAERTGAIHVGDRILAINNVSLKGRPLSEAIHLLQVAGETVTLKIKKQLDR
Sequence of FRMPD2_3, Q68DX3 (Q68DX3 1073-1166): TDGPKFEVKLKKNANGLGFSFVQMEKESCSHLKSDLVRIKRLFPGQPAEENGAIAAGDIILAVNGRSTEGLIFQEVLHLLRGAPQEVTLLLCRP
Sequence of FRMPD3, Q5JV73 (Q5JV73 12-100): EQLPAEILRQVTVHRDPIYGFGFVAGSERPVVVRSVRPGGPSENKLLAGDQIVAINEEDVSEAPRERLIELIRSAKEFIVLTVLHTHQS
Sequence of MAGI2_2, Q86UL8 (Q86UL8 410-522): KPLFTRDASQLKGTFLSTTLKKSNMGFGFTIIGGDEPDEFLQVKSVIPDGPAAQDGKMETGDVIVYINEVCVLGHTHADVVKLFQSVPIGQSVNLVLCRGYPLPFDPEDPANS
Sequence of MAST1, Q9Y2H9 (Q9Y2H9 962-1065): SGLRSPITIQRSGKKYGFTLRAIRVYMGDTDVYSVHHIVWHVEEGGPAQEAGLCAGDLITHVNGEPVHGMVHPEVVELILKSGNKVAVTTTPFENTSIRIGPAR
Sequence of IL16_3, Q14005 (Q14005 1107-1207): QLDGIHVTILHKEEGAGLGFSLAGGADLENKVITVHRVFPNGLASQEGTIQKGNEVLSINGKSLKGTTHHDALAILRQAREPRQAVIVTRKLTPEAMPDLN
Sequence of CASK, O14936 (O14936 487-570): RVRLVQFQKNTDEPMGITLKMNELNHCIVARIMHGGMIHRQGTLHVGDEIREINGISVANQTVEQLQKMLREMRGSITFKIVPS
Sequence of HTRA2, O43464 (O43464 355-458): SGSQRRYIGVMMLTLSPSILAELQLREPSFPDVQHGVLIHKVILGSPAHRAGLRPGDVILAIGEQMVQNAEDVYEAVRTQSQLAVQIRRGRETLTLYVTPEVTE
Sequence of GRIP2_5, Q9C0E4 (Q9C0E4 544-642): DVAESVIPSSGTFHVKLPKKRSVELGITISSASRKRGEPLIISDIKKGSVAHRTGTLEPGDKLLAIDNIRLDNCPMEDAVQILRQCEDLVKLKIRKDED

Binder	pKd [1]	pKd [2]	pKd [3]	pKd [4]	pKd [5]	pKd [6]	pKd [7]	pKd [8]	pKd [9]	pKd [10]	pKd [11]	pKd [12]	pKd [13]	pKd [14]	pKd [15]	pKd [16]	pKd [17]	pKd [18]	pKd [19]	pKd [20]	further results
NTALVESEDL [PALLS, Q8WX93;Q8WX93-1]	below the threshold	below the threshold	below the threshold	below the threshold	below the threshold	below the threshold	4.64	below the threshold	below the threshold	below the threshold	below the threshold	below the threshold	below the threshold	below the threshold	below the threshold	below the threshold	below the threshold	4.56	below the threshold	below the threshold	pKd [21]: below the threshold; pKd [22]: below the threshold; pKd [23]: below the threshold; pKd [24]: below the threshold; pKd [25]: below the threshold; pKd [26]: below the threshold; pKd [27]: below the threshold
HDDYFYHDEL [RCN2, Q14257]	below the threshold	below the threshold	below the threshold	below the threshold	below the threshold	below the threshold	4.11	below the threshold	below the threshold	below the threshold	4.34	below the threshold	below the threshold	below the threshold	3.6	below the threshold	3.59	4.35	below the threshold	below the threshold	pKd [21]: below the threshold; pKd [22]: 3.74; pKd [23]: below the threshold; pKd [24]: below the threshold; pKd [25]: 5.01; pKd [26]: below the threshold; pKd [27]: below the threshold
THREVKFTSL [CD46, P15529]	below the threshold	3.88	below the threshold	below the threshold	below the threshold	3.88	4.36	4.26	below the threshold	3.98	5.18	below the threshold	below the threshold	below the threshold	4.17	3.85	4.05	4.81	below the threshold	4.6	pKd [21]: below the threshold; pKd [22]: below the threshold; pKd [23]: below the threshold; pKd [24]: below the threshold; pKd [25]: 4.77; pKd [26]: 3.75; pKd [27]: 4.95
KAEEKPPSKV [SCN4B, Q8IWT1]	below the threshold	below the threshold	below the threshold	below the threshold	below the threshold	3.52	below the threshold	3.95	below the threshold	below the threshold	below the threshold	below the threshold	below the threshold	below the threshold	below the threshold	below the threshold	below the threshold	3.69	below the threshold	below the threshold	pKd [21]: below the threshold; pKd [22]: below the threshold; pKd [23]: below the threshold; pKd [24]: below the threshold; pKd [25]: below the threshold; pKd [26]: below the threshold; pKd [27]: below the threshold
QKNKDREYYV [NRXN3, Q9HDB5]	below the threshold	4.32	4.03	below the threshold	below the threshold	below the threshold	below the threshold	4.56	below the threshold	4.27	4.61	below the threshold	4.38	4.02	3.8	3.97	below the threshold	below the threshold	4.71	below the threshold	pKd [21]: below the threshold; pKd [22]: 4.25; pKd [23]: below the threshold; pKd [24]: 3.55; pKd [25]: below the threshold; pKd [26]: below the threshold; pKd [27]: 3.52
